Laboratory results as given in patent publication US20200308303A1 (KATHOLIEKE UNIVERSITEIT LEUVEN, published 2020).

Molecular target: ovine ADAMTS13 (sheep (ovine))
Assay: cell-based or functional assay

B1: monoclonal anti-ADAMTS13 antibody 17C7 (antibody, V domains shown)
VH: EVQLVESGGDLVKSGGSLKLSCAASGFIFSNYAMSWVRQTPEKRLEWGATITTGGFYTFYSDSVKGRFTISRDNAKNTLYLQMSSLRSEDTAMYYCARHRYDDYYALDYWGQGTSVTVSS
VL: ENVLTQSPAIMSTSPGEKVTMTCNVSSSVSYMRWFQQKSSTSPKLWIYDTSKLASGVPGRFSGSGSGHSYSLTISSMEADDVATYYCFQGNGYPLTFGAGTKLELK
modifications: Biotinylated when used as detector; the site is not stated and the letters cannot carry it.
half maximal inhibitory concentration (IC50) of ADAMTS13 activity in ovine plasma, FRETS-VWF71 assay: 2.4 µg/mL
